Measurements taken from patent US20170015742A1 (published 2017).
Where a chain is given by its changes, count along the chain named.

B1: 1E3.4_GS_3E2.1 (bispecific antibody, human IgG1, kappa, L234A L235A)
heavy: EIQLVQSGSELKKPGASVKVSCKASGYPFTNSGMYWVKQAPGQGLEYMGWINTEAGKPTYADDFKGRFVFSLDTSVSTAYLQISSLKAEDTAVYFCARWGYISDNSYGWFDYWGQGTLVTVSSGGGGSGGGGSEVQLVQSGAEVKKPGSSVKVSCKASGYTFTESYMYWVKQAPGQGLELIGRIDPEDGSTDYVEKFKNKATLTADKSTSTAYMELSSLRSEDTAVYFCARFGARSYFYPMDAWGQGTTVTVSSASTKGPSVFPLAPSSKSTSGGTAALGCLVKDYFPEPVTVSWNSGALTSGVHTFPAVLQSSGLYSLSSVVTVPSSSLGTQTYICNVNHKPSNTKVDKKVEPKSCDKTHTCPPCPAPEAAGGPSVFLFPPKPKDTLMISRTPEVTCVVVDVSHEDPEVKFNWYVDGVEVHNAKTKPREEQYNSTYRVVSVLTVLHQDWLNGKEYKCKVSNKALPAPIEKTISKAKGQPREPQVYTLPPSREEMTKNQVSLTCLVKGFYPSDIAVEWESNGQPENNYKTTPPVLDSDGSFFLYSKLTVDKSRWQQGNVFSCSVMHEALHNAYTQKSLSLSPGK
light: ATQLTQSPSSLSASVGDRVTISCRASEGVYSYMHWYQQKPGKQPKLLIYKASNLASGVPSRFSGSGSGTDFTLTISSLQPEDFATYFCHQNWNDPLTFGQGTKLEIKGGSGGGGSGGETVLTQSPATLSLSPGERATLSCRASESVSTLMHWYQQKPGQQPRLLIYGASNLESGVPARFSGSGSGTDFTLTISSLEPEDFAVYFCQQSWNDPWTFGGGTKVEIKRTVAAPSVFIFPPSDEQLKSGTASVVCLLNNFYPREAKVQWKVDNALQSGNSQESVTEQDSKDSTYSLSSTLTLSKADYEKHKVYACEVTHQGLSSPVTKSFNRGEC
B2: CL-33675_GS_4G8.5 (bispecific antibody, human IgG1, kappa, L234A L235A)
heavy: EVTLRESGPALVKPTQTLTLTCTFSGFSLSTYGMGVGWIRQPPGKALEWLANIWWDDDKYYNPSLKNRLTISKDTSKNQVVLTMTNMDPVDTATYYCARIESSGPKYSFDYWGQGTMVTVSSGGGGSGGGGSEIQLVQSGSELKKPGASVKVSCKASGYTFTNYGMYWVRQAPGQGLEYMGWINTETGKPTYADDFKGRFVFSLDTSVSTAYLQISSLKAEDTAVYFCARTNYYYRSYIFYFDYWGQGTMVTVSSASTKGPSVFPLAPSSKSTSGGTAALGCLVKDYFPEPVTVSWNSGALTSGVHTFPAVLQSSGLYSLSSVVTVPSSSLGTQTYICNVNHKPSNTKVDKKVEPKSCDKTHTCPPCPAPEAAGGPSVFLFPPKPKDTLMISRTPEVTCVVVDVSHEDPEVKFNWYVDGVEVHNAKTKPREEQYNSTYRVVSVLTVLHQDWLNGKEYKCKVSNKALPAPIEKTISKAKGQPREPQVYTLPPSREEMTKNQVSLTCLVKGFYPSDIAVEWESNGQPENNYKTTPPVLDSDGSFFLYSKLTVDKSRWQQGNVFSCSVMHEALHNAYTQKSLSLSPGK
light: EIVLTQSPGTLSLSPGERATLSCRASSGSIWYSFVSWYQQKPGQAPRLLIYADDQRASGIPDRFSGSGSGTDFTLTISRLEPEDFAVYYCQSYGINIDVVFGGGTKVEIKGGSGGGGSGGATQLTQSPSLSASVGDRVTITCRASESVSTHMHWYQQKPGKQPKLLIYGASNLESGVPSRFSGSGSGTDFTLTISSLQPEDFATYFCQQSWNDPFTFGQGTKLEIKRTVAAPSVFIFPPSDEQLKSGTASVVCLLNNFYPREAKVQWKVDNALQSGNSQESVTEQDSKDSTYSLSSTLTLSKADYEKHKVYACEVTHQGLSSPVTKSFNRGEC
B3: CL-33675_GS_1B10.1 (bispecific antibody, human IgG1, kappa, L234A L235A)
heavy: EVTLRESGPALVKPTQTLTLTCTFSGFSLSTYGMGVGWIRQPPGKALEWLANIWWDDDKYYNPSLKNRLTISKDTSKNQVVLTMTNMDPVDTATYYCARIESSGPKYSFDYWGQGTMVTVSSGGGGSGGGGSEVQLVESGGGLVQPGGSLRLSCAASGFSFSKYDMAWFRQAPGKGLEWVASITTSGVGTYYRDSVKGRFTVSRDNAKSTLYLQMNSLRAEDTAVYYCARGYGAMDAWGQGTTVTVSSASTKGPSVFPLAPSSKSTSGGTAALGCLVKDYFPEPVTVSWNSGALTSGVHTFPAVLQSSGLYSLSSVVTVPSSSLGTQTYICNVNHKPSNTKVDKKVEPKSCDKTHTCPPCPAPEAAGGPSVFLFPPKPKDTLMISRTPEVTCVVVDVSHEDPEVKFNWYVDGVEVHNAKTKPREEQYNSTYRVVSVLTVLHQDWLNGKEYKCKVSNKALPAPIEKTISKAKGQPREPQVYTLPPSREEMTKNQVSLTCLVKGFYPSDIAVEWESNGQPENNYKTTPPVLDSDGSFFLYSKLTVDKSRWQQGNVFSCSVMHEALHNAYTQKSLSLSPGK
light: EIVLTQSPGTLSLSPGERATLSCRASSGSIWYSFVSWYQQKPGQAPRLLIYADDQRASGIPDRFSGSGSGTDFTLTISRLEPEDFAVYYCQSYGINIDVVFGGGTKVEIKGGSGGGGSGGDIQMTQSPSSLSASVGDRVTITCKASQDIDDYLSWYQQKPGKSPKLVIYAATRLADGVPSRFSGSGSGTDYTLTISSLQPEDFATYYCLQSSSTPWTFGGGTKVEIKRTVAAPSVFIFPPSDEQLKSGTASVVCLLNNFYPREAKVQWKVDNALQSGNSQESVTEQDSKDSTYSLSSTLTLSKADYEKHKVYACEVTHQGLSSPVTKSFNRGEC
B4: 9E10.6_GS_CL-33675 (bispecific antibody, human IgG1, kappa, L234A L235A)
heavy: EVQLVQSGAEVKKPGSSVKVSCKASGYTFTNYGMYWVRQAPGQGLEWMGWIDTETGRPTYADDFKGRFTFTADKSTSTAYMELSSLRSEDTAVYYCARWSGDTTGIRGPWFAYWGQGTLVTVSSGGGGSGGGGSEVTLRESGPALVKPTQTLTLTCTFSGFSLSTYGMGVGWIRQPPGKALEWLANIWWDDDKYYNPSLKNRLTISKDTSKNQVVLTMTNMDPVDTATYYCARIESSGPKYSFDYWGQGTMVTVSSASTKGPSVFPLAPSSKSTSGGTAALGCLVKDYFPEPVTVSWNSGALTSGVHTFPAVLQSSGLYSLSSVVTVPSSSLGTQTYICNVNHKPSNTKVDKKVEPKSCDKTHTCPPCPAPEAAGGPSVFLFPPKPKDTLMISRTPEVTCVVVDVSHEDPEVKFNWYVDGVEVHNAKTKPREEQYNSTYRVVSVLTVLHQDWLNGKEYKCKVSNKALPAPIEKTISKAKGQPREPQVYTLPPSREEMTKNQVSLTCLVKGFYPSDIAVEWESNGQPENNYKTTPPVLDSDGSFFLYSKLTVDKSRWQQGNVFSCSVMHEALHNAYTQKSLSLSPGK
light: DIRMTQSPSSLSASVGDRVTITCLASEDIYSDLAWYQQKPGKSPKLLIYNANGLQNGVPSRFSGSGSGTDYTLTISSLQPEDVATYFCQQYNYFPGTFGQGTKLEIKGGSGGGGSGGEIVLTQSPGTLSLSPGERATLSCRASSGSIWYSFVSWYQQKPGQAPRLLIYADDQRASGIPDRFSGSGSGTDFTLTISRLEPEDFAVYYCQSYGINIDVVFGGGTKVEIKRTVAAPSVFIFPPSDEQLKSGTASVVCLLNNFYPREAKVQWKVDNALQSGNSQESVTEQDSKDSTYSLSSTLTLSKADYEKHKVYACEVTHQGLSSPVTKSFNRGEC
B5: 9E10.1_GS_9E8.4 (bispecific antibody, human IgG1, kappa, L234A L235A)
heavy: EIQLVQSGSELKKPGASVKVSCKASGYTFTNYGMYWVKQAPGQGLEYMGWIDTETGRPTYADDFKGRFVFSLDTSVSTAYLQISSLKAEDTAVYFCARWSGDTTGIRGPWFAYWGQGTLVTVSSGGGGSGGGGSEVTLRESGPALVKPTQTLTLTCTFSGFSLSTYGMGVGWIRQPPGKALEWLANIWWDDDKYYNPSLKNRLTISKDTSKNQVVLTMTNMDPVDTATYYCARIESIGTTYSFDYWGQGTMVTVSSASTKGPSVFPLAPSSKSTSGGTAALGCLVKDYFPEPVTVSWNSGALTSGVHTFPAVLQSSGLYSLSSVVTVPSSSLGTQTYICNVNHKPSNTKVDKKVEPKSCDKTHTCPPCPAPEAAGGPSVFLFPPKPKDTLMISRTPEVTCVVVDVSHEDPEVKFNWYVDGVEVHNAKTKPREEQYNSTYRVVSVLTVLHQDWLNGKEYKCKVSNKALPAPIEKTISKAKGQPREPQVYTLPPSREEMTKNQVSLTCLVKGFYPSDIAVEWESNGQPENNYKTTPPVLDSDGSFFLYSKLTVDKSRWQQGNVFSCSVMHEALHNAYTQKSLSLSPGK
light: DIRMTQSPSSLSASVGDRVTIECLASEDIYSDLAWYQQKPGKSPKLLIYNANGLQNGVPSRFSGSGSGTDYSLTISSLQPEDVATYFCQQYNYFPGTFGQGTKLEIKGGSGGGGSGGEFVLTQSPGTLSLSPGERATLSCERSSGDIGDSYVSWYQQKPGQAPRLVIYADDQRPSGIPDRFSGSGSGTDFTLTISRLEPEDFAVYYCQSYDINIDIVFGGGTKVEIKRTVAAPSVFIFPPSDEQLKSGTASVVCLLNNFYPREAKVQWKVDNALQSGNSQESVTEQDSKDSTYSLSSTLTLSKADYEKHKVYACEVTHQGLSSPVTKSFNRGEC
B6: 9E10.6_GS_9E8.4 (bispecific antibody, human IgG1, kappa, L234A L235A)
heavy: B4 heavy with S237I, P239T, K240T
light: B5 light with E22T, S72T
B7: 1B10.1_GS_9E8.4 (bispecific antibody, human IgG1, kappa, L234A L235A)
heavy: EVQLVESGGGLVQPGGSLRLSCAASGFSFSKYDMAWFRQAPGKGLEWVASITTSGVGTYYRDSVKGRFTVSRDNAKSTLYLQMNSLRAEDTAVYYCARGYGAMDAWGQGTTVTVSSGGGGSGGGGSEVTLRESGPALVKPTQTLTLTCTFSGFSLSTYGMGVGWIRQPPGKALEWLANIWWDDDKYYNPSLKNRLTISKDTSKNQVVLTMTNMDPVDTATYYCARIESIGTTYSFDYWGQGTMVTVSSASTKGPSVFPLAPSSKSTSGGTAALGCLVKDYFPEPVTVSWNSGALTSGVHTFPAVLQSSGLYSLSSVVTVPSSSLGTQTYICNVNHKPSNTKVDKKVEPKSCDKTHTCPPCPAPEAAGGPSVFLFPPKPKDTLMISRTPEVTCVVVDVSHEDPEVKFNWYVDGVEVHNAKTKPREEQYNSTYRVVSVLTVLHQDWLNGKEYKCKVSNKALPAPIEKTISKAKGQPREPQVYTLPPSREEMTKNQVSLTCLVKGFYPSDIAVEWESNGQPENNYKTTPPVLDSDGSFFLYSKLTVDKSRWQQGNVFSCSVMHEALHNAYTQKSLSLSPGK
light: DIQMTQSPSSLSASVGDRVTITCKASQDIDDYLSWYQQKPGKSPKLVIYAATRLADGVPSRFSGSGSGTDYTLTISSLQPEDFATYYCLQSSSTPWTFGGGTKVEIKGGSGGGGSGGEFVLTQSPGTLSLSPGERATLSCERSSGDIGDSYVSWYQQKPGQAPRLVIYADDQRPSGIPDRFSGSGSGTDFTLTISRLEPEDFAVYYCQSYDINIDIVFGGGTKVEIKRTVAAPSVFIFPPSDEQLKSGTASVVCLLNNFYPREAKVQWKVDNALQSGNSQESVTEQDSKDSTYSLSSTLTLSKADYEKHKVYACEVTHQGLSSPVTKSFNRGEC

Each binder was assayed against recombinant human VEGF165 (human, UniProt P15692 207-395) (assay: cell-based or functional assay).
Sequence of recombinant human VEGF165 (P15692 other isoform, or with tags, fused parts or gaps limits assumed): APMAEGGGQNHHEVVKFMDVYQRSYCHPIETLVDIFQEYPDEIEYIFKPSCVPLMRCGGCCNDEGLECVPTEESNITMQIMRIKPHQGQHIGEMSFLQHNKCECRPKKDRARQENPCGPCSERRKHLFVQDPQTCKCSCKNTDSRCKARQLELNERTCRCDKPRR

Point of comparison: B6, “Potency IC50 (nM) HMVEC-d hVEGF165” value 0.049 nM. Against it:
- B1 — within 1.5-fold, 0.043 nM
- B2 — 4.5-fold higher, 0.219 nM
- B3 — 5.4-fold higher, 0.265 nM
- B4 — within 1.5-fold, 0.05 nM
- B5 — within 1.5-fold, 0.059 nM
- B7 — 2.6-fold higher, 0.127 nM

What follows are binders tested against recombinant human PDGF-BB (human, UniProt P01127 82-190) (assay: cell-based or functional assay).
Sequence of recombinant human PDGF-BB (P01127 82-190 limits assumed): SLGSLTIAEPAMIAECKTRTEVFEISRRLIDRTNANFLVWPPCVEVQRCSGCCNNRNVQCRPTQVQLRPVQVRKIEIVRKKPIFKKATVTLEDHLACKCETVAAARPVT

Point of comparison: B5, “Potency IC50 (nM) NIH-3T3 hPDGF-BB” value 1.91 nM. Against it:
- B1 — 3.3-fold higher, 6.25 nM
- B2 — 55-fold lower, 0.035 nM
- B3 — 17-fold lower, 0.11 nM
- B4 — 52-fold lower, 0.037 nM
- B6 — 1.7-fold lower, 1.14 nM
- B7 — 2.8-fold lower, 0.678 nM
